According to the supplement of paper PMC5998384:

Key:
HeLa Kyoto [1] = assay: solubility in G1/S (NP-40 vs SDS abundance) (log2 ratio); higher = more soluble; conditions: cell cycle stage: G1/S
HeLa Kyoto [2] = assay: solubility change mitosis vs G1/S (difference of NP-40 vs SDS log2 ratios) (log2 ratio difference); higher = more soluble in mitosis
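Throughout, for solubility change mitosis vs G1/S (difference of NP-40 vs SDS log2 ratios): synchronized HeLa Kyoto cells (double thymidine block for G1/S, nocodazole release for mitosis), protein amounts in NP-40 versus SDS lysates quantified by mass spectrometry, three biological replicates.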
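Throughout, for solubility in G1/S (NP-40 vs SDS abundance): HeLa Kyoto cells arrested at G1/S by double thymidine block, proteins quantified by TMT10plex mass spectrometry in mild NP-40 versus SDS extracts, three biological replicates.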

Sequence | solubility in G1/S (log2) (HeLa Kyoto [1]) | solubility change mitosis (log2) (HeLa Kyoto [2])
MERLRDVRERLQAWERAFRRQRGRRPSQDDVEAAPEETRALYREYRTLKRTTGQAGGGLRSSESLPAAAEEAPEPRCWGPHLNRAATKSPQSTPGRSRQGSVPDYGQRLKANLKGTLQAGPALGRRPWPLGRASSKASTPKPPGTGPVPSFAEKVSDEPPQLPEPQPRPGRLQHLQASLSQRLGSLDPGWLQRCHSEVPDFLGAPKACRPDLGSEESQLLIPGESAVLGPGAGSQGPEASAFQEVSIRVGSPQPSSSGGEKRRWNEEPWESPAQVQQESSQAGPPSEGAGAVAVEEDPPGEPVQAQPPQPCSSPSNPRYHGLSPSSQARAGKAEGTAPLHIFPRLARHDRGNYVRLNMKQKHYVRGRALRSRLLRKQAWKQKWRKKGECFGGGGATVTTKESCFLNEQFDHWAAQCPRPASEEDTDAVGPEPLVPSPQPVPEVPSLDPTVLPLYSLGPSGQLAETPAEVFQALEQLGHQAFRPGQERAVMRILSGISTLLVLPTGAGKSLCYQLPALLYSRRSPCLTLVVSPLLSLMDDQVSGLPPCLKAACIHSGMTRKQRESVLQKIRAAQVHVLMLTPEALVGAGGLPPAAQLPPVAFACIDEAHCLSQWSHNFRPCYLRVCKVLRERMGVHCFLGLTATATRRTASDVAQHLAVAEEPDLHGPAPVPTNLHLSVSMDRDTDQALLTLLQGKRFQNLDSIIIYCNRREDTERIAALLRTCLHAAWVPGSGGRAPKTTAEAYHAGMCSRERRRVQRAFMQGQLRVVVATVAFGMGLDRPDVRAVLHLGLPPSFESYVQAVGRAGRDGQPAHCHLFLQPQGEDLRELRRHVHADSTDFLAVKRLVQRVFPACTCTCTRPPSEQEGAVGGERPVPKYPPQEAEQLSHQAAPGPRRVCMGHERALPIQLTVQALDMPEEAIETLLCYLELHPHHWLELLATTYTHCRLNCPGGPAQLQALAHRCPPLAVCLAQQLPEDPGQGSSSVEFDMVKLVDSMGWELASVRRALCQLQWDHEPRTGVRRGTGVLVEFSELAFHLRSPGDLTAEEKDQICDFLYGRVQARERQALARLRRTFQAFHSVAFPSCGPCLEQQDEERSTRLKDLLGRYFEEEEGQEPGGMEDAQGPEPGQARLQDWEDQVRCDIRQFLSLRPEEKFSSRAVARIFHGIGSPCYPAQVYGQDRRFWRKYLHLSFHALVGLATEELLQVAR [RECQL4] | -0.103 | 0.0659
MERVNDASCGPSGCYTYQVSRHSTEMLHNLNQQRKNGGRFCDVLLRVGDESFPAHRAVLAACSEYFESVFSAQLGDGGAADGGPADVGGATAAPGGGAGGSRELEMHTISSKVFGDILDFAYTSRIVVRLESFPELMTAAKFLLMRSVIEICQEVIKQSNVQILVPPARADIMLFRPPGTSDLGFPLDMTNGAALAANSNGIAGSMQPEEEAARAAGAAIAGQASLPVLPGVDRLPMVAGPLSPQLLTSPFPSVASSAPPLTGKRGRGRPRKANLLDSMFGSPGGLREAGILPCGLCGKVFTDANRLRQHEAQHGVTSLQLGYIDLPPPRLGENGLPISEDPDGPRKRSRTRKQVACEICGKIFRDVYHLNRHKLSHSGEKPYSCPVCGLRFKRKDRMSYHVRSHDGSVGKPYICQSCGKGFSRPDHLNGHIKQVHTSERPHKCQTCNASFATRDRLRSHLACHEDKVPCQVCGKYLRAAYMADHLKKHSEGPSNFCSICNRGFSSASYLKVHVKTHHGVPLPQVSRHQEPILNGGAAFHCARTYGNKEGQKCSHQDPIESSDSYGDLSDASDLKTPEKQSANGSFSCDMAVPKNKMESDGEKKYPCPECGSFFRSKSYLNKHIQKVHVRALGGPLGDLGPALGSPFSPQQNMSLLESFGFQIVQSAFASSLVDPEVDQQPMGPEGK [PATZ1] | -0.643 | 0.402
MESTAYPLNLSLKEEEEEEEIQSRELEDGPADMQKVRICSEGGWVPALFDEVAIYFSDEEWEVLTEQQKALYREVMRMNYETVLSLEFPFPKPDMITRLEGEEESQNSDEWQLQGGTSAENEESDVKPPDWPNPMNATSQFPQPQHFDSFGLRLPRDITELPEWSEGYPFYMAMGFPGYDLSADDIAGKFQFSRGMRRSYDAGFKLMVVEYAESTNNCQAAKQFGVLEKNVRDWRKVKPQLQNAHAMRRAFRGPKNGRFALVDQRVAEYVRYMQAKGDPITREAMQLKALEIAQEMNIPEKGFKASLGWCRRMMRRYDLSLRHKVPVPQHLPEDLTEKLVTYQRSVLALRRAHDYEVAQMGNADETPICLEVPSRVTVDNQGEKPVLVKTPGREKLKITAMLGVLADGRKLPPYIILRGTYIPPGKFPSGMEIRCHRYGWMTEDLMQDWLEVVWRRRTGAVPKQRGMLILNGFRGHATDSVKNSMESMNTDMVIIPGGLTSQLQVLDVVVYKPLNDSVRAQYSNWLLAGNLALSPTGNAKKPPLGLFLEWVMVAWNSISSESIVQGFKKCHISSNLEEEDDVLWEIESELPGGGEPPKDCDTESMAESN [POGK] | -0.0733 | -0.0638
MFNRAVSRLSRKRPPSDIHDSDGSSSSSHQSLKSTAKWAASLENLLEDPEGVKRFREFLKKEFSEENVLFWLACEDFKKMQDKTQMQEKAKEIYMTFLSSKASSQVNVEGQSRLNEKILEEPHPLMFQKLQDQIFNLMKYDSYSRFLKSDLFLKHKRTEEEEEDLPDAQTAAKRASRIYNT [RGS10] | 0.563 | 0.405
MFRIEGLAPKLDPEEMKRKMREDVISSIRNFLIYVALLRVTPFILKKLDSI [TOMM5] | -0.518 | -0.172
MGAVTDDEVIRKRLLIDGDGAGDDRRINLLVKSFIKWCNSGSQEEGYSQYQRMLSTLSQCEFSMGKTLLVYDMNLREMENYEKIYKEIECSIAGAHEKIAECKKQILQAKRIRKNRQEYDALAKVIQHHPDRHETLKELEALGKELEHLSHIKESVEDKLELRRKQFHVLLSTIHELQQTLENDEKLSEVEEAQEASMETDPKP [THOC7] | -0.022 | 0.387
MGDAGSERSKAPSLPPRCPCGFWGSSKTMNLCSKCFADFQKKQPDDDSAPSTSNSQSDLFSEETTSDNNNTSITTPTLSPSQQPLPTELNVTSPSKEECGPCTDTAHVSLITPTKRSCGTDSQSENEASPVKRPRLLENTERSEETSRSKQKSRRRCFQCQTKLELVQQELGSCRCGYVFCMLHRLPEQHDCTFDHMGRGREEAIMKMVKLDRKVGRSCQRIGEGCS [ZFAND3] | 0.216 | -0.0341
MGDNPFQPKSNSKMAELFMECEEEELEPWQKKVKEVEDDDDDEPIFVGEISSSKPAISNILNRVNPSSYSRGLKNGALSRGITAAFKPTSQHYTNPTSNPVPASPINFHPESRSSDSSVIVQPFSKPGYITNSSRVVSNKSSELLFDLTQDTGLSHYQGGPTLSMAGMSESSFLSKRPSTSEVNNVNPKKPKPSESVSGANSSAVLPSVKSPSVTSSQAMLAKGTNTSSNQSKNGTPFPRACPKCNIHFNLLDPLKNHMKYCCPDMINNFLGLAKTEFSSTVNKNTTIDSEKGKLIMLVNDFYYGKHEGDVQEEQKTHTTFKCFSCLKILKNNIRFMNHMKHHLELEKQSSESWENHTTCQHCYRQFPTPFQLQCHIESTHTPHEFSTICKICELSFETEHVLLQHMKDNHKPGEMPYVCQVCNYRSSSFSDVETHFRTSHENTKNLLCPFCLKVIKIATPYMHHYMKHQKKGIHRCTKCRLQFLTCKEKMDHKTQHHRTFIKPKQLEGLPPGTKVTIRASVGPLQSGASPTPSISASASTLQLSPPRTKNITAKNPAKSNTSKPNTVKSNASKPNTSKPNGSKSKYKPKISNMQKKQSTLASSNKKSKVNTALRNLRYRRGIHKCIECCSEIKDFANHFPTYVHCSFCRYNTSCSKAYVNHMMSFHSNRPSKRFCIFKKHSENLRGITLVCLNCDFLSDVSGLDNMATHLSQHKTHTCQVVMQKVSVCIPTSEHLSELKKEAPAKEQEPVSKEIARPNMAERETETSNSESKQDKAASSKEKNGCNANSFEGSSTTKSEESITVSDKENETCLADQETGSKNIVSCDSNIGADKVEKKKQIQHVCQEMELKMCQSSENIILSDQIKDHNSSEARFSSKNIKDLRLASDNVSIDQFLRKRHEPESVSSDVSEQGSIHLEPLTPSEVLEYEATEILQKGSGDPSAKTDEVVSDQTDDIPGGNNPSTTEATVDLEDEKERS [ZNF280D] | -0.86 | 0.447
MGETKIIYHLDGQETPYLVKLPLPAERVTLADFKGVLQRPSYKFFFKSMDDDFGVVKEEISDDNAKLPCFNGRVVSWLVSAEGSHPDPAPFCADNPSELPPPMERTGGIGDSRPPSFHPHAGGGSQENLDNDTETDSLVSAQRERPRRRDGPEHATRLNGTAKGERRREPGGYDSSSTLMSSELETTSFFDSDEDDSTSRFSSSTEQSSASRLMRRHKRRRRKQKVSRIERSSSFSSITDSTMSLNIITVTLNMEKYNFLGISIVGQSNERGDGGIYIGSIMKGGAVAADGRIEPGDMLLQVNEINFENMSNDDAVRVLREIVHKPGPITLTVAKCWDPSPRGCFTLPRSEPIRPIDPAAWVSHTAAMTGTFPAYGMSPSLSTITSTSSSITSSIPDTERLDDFHLSIHSDMAAIVKAMASPESGLEVRDRMWLKITIPNAFIGSDVVDWLYHNVEGFTDRREARKYASNLLKAGFIRHTVNKITFSEQCYYIFGDLCGNMANLSLHDHDGSSGASDQDTLAPLPHPGAAPWPMAFPYQYPPPPHPYNPHPGFPELGYSYGGGSASSQHSEGSRSSGSNRSGSDRRKEKDPKAGDSKSGGSGSESDHTTRSSLRGPRERAPSERSGPAASEHSHRSHHSLASSLRSHHTHPSYGPPGVPPLYGPPMLMMPPPPAAMGPPGAPPGRDLASVPPELTASRQSFRMAMGNPSEFFVDVM [DVL3] | -0.0796 | -0.17
MGHPPLEFSDCYLDSPDFRERLKCYEQELERTNKFIKDVIKDGNALISAMRNYSSAVQKFSQTLQSFQFDFIGDTLTDDEINIAESFKEFAELLNEVENERMMMVHNASDLLIKPLENFRKEQIGFTKERKKKFEKDGERFYSLLDRHLHLSSKKKESQLQEADLQVDKERHNFFESSLDYVYQIQEVQESKKFNIVEPVLAFLHSLFISNSLTVELTQDFLPYKQQLQLSLQNTRNHFSSTREEMEELKKRMKEAPQTCKLPGQPTIEGYLYTQEKWALGISWVKYYCQYEKETKTLTMTPMEQKPGAKQGPLDLTLKYCVRRKTESIDKRFCFDIETNERPGTITLQALSEANRRLWMEAMDGKEPIYHSPITKQQEMELNEVGFKFVRKCINIIETKGIKTEGLYRTVGSNIQVQKLLNAFFDPKCPGDVDFHNSDWDIKTITSSLKFYLRNLSEPVMTYRLHKELVSAAKSDNLDYRLGAIHSLVYKLPEKNREMLELLIRHLVNVCEHSKENLMTPSNMGVIFGPTLMRAQEDTVAAMMNIKFQNIVVEILIEHFGKIYLGPPEESAAPPVPPPRVTARRHKPITISKRLLRERTVFYTSSLDESEDEIQHQTPNGTITSSIEPPKPPQHPKLPIQRSGETDPGRKSPSRPILDGKLEPCPEVDVGKLVSRLQDGGTKITPKATNGPMPGSGPTKTPSFHIKRPAPRPLAHHKEGDADSFSKVRPPGEKPTIIRPPVRPPDPPCRAATPQKPEPKPDIVAGNAGEITSSVVASRTRFFETASRKTGSSQGRLPGDES [OPHN1] | -0.348 | -0.0995
